From article PMC10019781, “Structure and function of Plasmodium actin II in the parasite mosquito stages” (PLOS Pathogens, 2023)

B1: Plasmodium falciparum actin II (natural protein)
chain: not shown
modifications: methyl-histidine at H73 (around 90% of actin II when expressed in insect cells)
notes: actin II of Plasmodium falciparum, PlasmoDB PF3D7_1412500; gene synthesized and codon-optimized for insect cells; In the pyrene assays (critical concentration, polymerization) a mixture of pyrene-labelled and unlabelled actin (ratio 1:3) was used; The first four N-terminal residues are not resolved in the filament maps; also called PfActII; F-actin II; source: Sf9 (Spodoptera frugiperda) cells, …
B2: Plasmodium actin I (natural protein)
chain: not shown
notes: actin I of Plasmodium; its cited filament structures are of P. falciparum actin I; in the pyrene assays a mixture of pyrene-labelled and unlabelled actin was used; also called F-actin I

How the values were obtained:
[1] = target: the molecule itself; experiment: dynamic light scattering; non-polymerizing conditions; 1.3 mg/ml, 70 ul, 4°C
[2] = target: the molecule itself; experiment: dynamic light scattering; polymerizing conditions, without JAS; 1.3 mg/ml, 70 ul, 4°C

Protein | stoichiometry N [1] | stoichiometry N [2]
B1 | 2 | –
B2 | – | 2
